Values of other authors, collected in US20200069786A1, “COMPOSITION AND PROCESS FOR PREPARING VACCINE” (TREOS BIO ZRT., priority 2018, published 2020).
Like-named read-outs stand apart in the source and are kept apart here.

Test system: TSA
[1] = TSA expression rate in Esophageal
[2] = TSA expression rate in LUNG cancer

B1: HSPB9 (protein, UniProt Q9BQS6 1-159, looked up)
Heat shock protein beta-9: MQRVGNTFSNESRVASRCPSVGLAERNRVATMPVRLLRDSPAAQEDNDHARDGFQMKLDAHGFAPEELVVQVDGQWLMVTGQQQLDVRDPERVSYRMSQKVHRKMLPSNLSPTAMTCCLTPSGQLWVRGQCVALALPEAQTGPSPRLGSLGSKASNLTR
TSA Expression Rate (ER) (LUNG): 40%
Expression Rate (ER) % (TSA expression rate in CRC): 40%
Expression Rate (ER) % [1]: 20%

B2: DKKL1 (protein, UniProt Q9UK85 31-242, looked up)
Dickkopf-like protein 1: APIHDADAQESSLGLTGLQSLLQGFSRLFLKGNLLRGIDSLFSAPMDFRGLPGNYHKEENQEHQLGNNTLSSHLQIDKMTDNKTGEVLISENVVASIQPAEGSFEGDLKVPRMEEKEALVPIQKATDSFHTELHPRVAFWIIKLPRRRSHQDALEGGHWLSEKRHRLQAIRDGLRKGTHKDVLEEGTESSSHSRLSPRKTHLLYILRPSRQL
TSA Expression Rate (ER) (BREAST): 20%
TSA Expression Rate (ER) (OVARIAN): 57%
TSA Expression Rate (ER) (THYROID): 0%
Expression Rate (ER) % (TSA expression rate in CRC): 0%
Expression Rate (ER) % (TSA expression rate in Cervical cancer): 33%
Expression Rate (ER) % (TSA expression rate in Kidney): 0%
Expression Rate (ER) % [2]: 12%
Expression Rate (ER) % (TSA expression rate in MELANOMA): 25%
Expression Rate (ER) % (TSA expression rate in PROSTATE cancer): 13%

B3: FSIP1 (protein, UniProt Q8NA03 1-581, looked up)
Fibrous sheath-interacting …: MDIIKGNLDGISKPASNSRIRPGSRSSNASLEVLSTEPGSFKVDTASNLNSGKEDHSESSNTENRRTSNDDKQESCSEKIKLAEEGSDEDLDLVQHQIISECSDEPKLKELDSQLQDAIQKMKKLDKILAKKQRREKEIKKQGLEMRIKLWEEIKSAKYSEAWQSKEEMENTKKFLSLTAVSEETVGPSHEEEDTFSSVFHTQIPPEEYEMQMQKLNKDFTCDVERNESLIKSGKKPFSNTEKIELRGKHNQDFIKRNIELAKESRNPVVMVDREKKRLVELLKDLDEKDSGLSSSEGDQSGWVVPVKGYELAVTQHQQLAEIDIKLQELSAASPTISSFSPRLENRNNQKPDRDGERNMEVTPGEKILRNTKEQRDLHNRLREIDEKLKMMKENVLESTSCLSEEQLKCLLDECILKQKSIIKLSSERKKEDIEDVTPVFPQLSRSIISKLLNESETKVQKTEVEDADMLESEECEASKGYYLTKALTGHNMSEALVTEAENMKCLQFSKDVIISDTKDYFMSKTLGIGRLKRPSFLDDPLYGISVSLSSEDQHLKLSSPENTIADEQETKDAAEECKEP
TSA Expression Rate (ER) (BREAST): 42%

B4: ZNF645 (protein, UniProt Q8N7E2 1-425, looked up)
E3 ubiquitin-protein ligase …: MNKMPAGEQECEYNKEGKYYSKGVKLVRKKKKIPGYRWGDIKINIIGEKDDLPIHFCDKCDLPIKIYGRIIPCKHAFCYHCANLYDKVGYKVCPRCRYPVLRIEAHKRGSVFMCSIVQQCKRTYLSQKSLQAHIKRRHKRARKQVTSASLEKVRPHIAPPQTEISDIPKRLQDRDHLSYIPPEQHTMVSLPSVQHMLQEQHNQPHKDIQAPPPELSLSLPFPIQWETVSIFTRKHGNLTVDHIQNNSDSGAKKPTPPDYYPECQSQPAVSSPHHIIPQKQHYAPPPSPSSPVNHQMPYPPQDVVTPNSVRSQVPALTTTYDPSSGYIIVKVPPDMNSPPLRAPQSQNGNPSASEFASHHYNLNILPQFTENQETLSPQFTQTDAMDHRRWPAWKRLSPCPPTRSPPPSTLHGRSHHSHQRRHRRY
TSA Expression Rate (ER) (LUNG): 68%

B5: SPAG8 (protein, UniProt Q99932 1-485, looked up)
Sperm-associated antigen 8: METNESTEGSRSRSRSLDIQPSSEGLGPTSEPFPSSDDSPRSALAAATAAAAAAASAAAATAAFTTAKAAALSTKTPAPCSEFMEPSSDPSLLGEPCAGPGFTHNIAHGSLGFEPVYVSCIAQDTCTTTDHSSNPGPVPGSSSGPVLGSSSGAGHGSGSGSGPGCGSVPGSGSGPGPGSGPGSGPGHGSGSHPGPASGPGPDTGPDSELSPCIPPGFRNLVADRVPNYTSWSQHCPWEPQKQPPWEFLQVLEPGARGLWKPPDIKGKLMVCYETLPRGQCLLYNWEEERATNHLDQVPSMQDGSESFFFRHGHRGLLTMQLKSPMPSSTTQKDSYQPPGNVYWPLRGKREAMLEMLLQHQICKEVQAEQEPTRKLFEVESVTHHDYRMELAQAGTPAPTKPHDYRQEQPETFWIQRAPQLPGVSNIRTLDTPFRKNCSFSTPVPLSLGKLLPYEPENYPYQLGEISSLPCPGGRLGGGGGRMTPF
TSA Expression Rate (ER) (BREAST): 29%
TSA Expression Rate (ER) (LUNG): 43%

B6: CT46 (protein, UniProt Q86X24 1-394, looked up)
HORMA domain-containing …: MATAQLQRTPMSALVFPNKISTEHQSLVLVKRLLAVSVSCITYLRGIFPECAYGTRYLDDLCVKILREDKNCPGSTQLVKWMLGCYDALQKKYLRMVVLAVYTNPEDPQTISECYQFKFKYTNNGPLMDFISKNQSNESSMLSTDTKKASILLIRKIYILMQNLGPLPNDVCLTMKLFYYDEVTPPDYQPPGFKDGDCEGVIFEGEPMYLNVGEVSTPFHIFKVKVTTERERMENIDSTILSPKQIKTPFQKILRDKDVEDEQEHYTSDDLDIETKMEEQEKNPASSELEEPSLVCEEDEIMRSKESPDLSISHSQVEQLVNKTSELDMSESKTRSGKVFQNKMANGNQPVKSSKENRKRSQHESGRIVLHHFDSSSQESVPKRRKFSEPKEHI
TSA Expression Rate (ER) (BREAST): 29%
TSA Expression Rate (ER) (LUNG): 47%
Expression Rate (ER) % (TSA expression rate in BLADDER cancer): 20%
Expression Rate (ER) % (TSA expression rate in CRC): 7%
Expression Rate (ER) % [1]: 35%

B7: CEP55 (protein, UniProt Q53EZ4 1-464, looked up)
Centrosomal protein of 55 kDa: MSSRSTKDLIKSKWGSKPSNSKSETTLEKLKGEIAHLKTSVDEITSGKGKLTDKERHRLLEKIRVLEAEKEKNAYQLTEKDKEIQRLRDQLKARYSTTTLLEQLEETTREGERREQVLKALSEEKDVLKQQLSAATSRIAELESKTNTLRLSQTVAPNCFNSSINNIHEMEIQLKDALEKNQQWLVYDQQREVYVKGLLAKIFELEKKTETAAHSLPQQTKKPESEGYLQEEKQKCYNDLLASAKKDLEVERQTITQLSFELSEFRRKYEETQKEVHNLNQLLYSQRRADVQHLEDDRHKTEKIQKLREENDIARGKLEEEKKRSEELLSQVQFLYTSLLKQQEEQTRVALLEQQMQACTLDFENEKLDRQHVQHQLHVILKELRKARNQITQLESLKQLHEFAITEPLVTFQGETENREKVAASPKSPTAALNESLVECPKCNIQYPATEHRDLLVHVEYCSK
TSA Expression Rate (ER) (LUNG): 94%

B8: FBXO39 (protein, UniProt Q8N4B4 1-442, looked up)
F-box only protein 39: MDEESELIQPQDQSCWAFLPDLCLCRVFWWLGDRDRSRAALVCRKWNQMMYSAELWRYRTITFSGRPSRVHASEVESAVWYVKKFGRYLEHLEVKFMNPYNAVLTKKFQVTMRGLLSCLSKSNNRLKSLSIQYLELDRLVWRNSIRSSFISSLSFFLKKMGKRLDYLNLKGARLTVEQGCQILDSLSYMRNENVISELNIEDYFSHHLAVYNSPQFKKTMSTFHNLVSLNLNYNCISDELLENLCENASTLRTINIKCHVHDPHGQVIWGMSWAKLARQATNLKVNFFFERIMKYERLARILLQEIPIRSISLRSCYFSDPDCSMRPTLIDLLPTFRHTLQKLTCEFNNNHESLDEELHLLIISCRKLFYFKIWAFLDVSFVERILKSQKERQCALRVFKARIYTNRYETNEEDKTLQEIYRKYRKLIESELSYFVIVYSVM
TSA Expression Rate (ER) (BREAST): 38%
Expression Rate (ER) % (TSA expression rate in CRC): 39%
Expression Rate (ER) % (TSA expression rate in GASTRIC cancer): 4%
Expression Rate (ER) % [2]: 0%
